Test results as given in patent US20230220381.
pKd: −log10 of the molar value.

How the values were obtained:
Thrombin (Homo sapiens) [1] = target: T1, Thrombin (Homo sapiens) (UniProt P00734+P00734); assay: FP
Thrombin (Homo sapiens) [2] = target: T1, Thrombin (Homo sapiens); assay: MST; conditions: Phe at library positions 5 and 3, C12 at position 4, Nap at position 1 (3' end) (unnatural monomers); 2Bind, N=2, 100 nM aptamer, buffer without Triton X; unit given as nmol

CGTCGAGGCCCGTGCTTACCCGTGACCTTCTTAGGAGGTTGGNGTGGNTGGTTTTTACACGTCACGCCTTTTTTTTT [TBA2F]
pKd (Thrombin (Homo sapiens) [1]; branched DNA-encoded construct with BU, aptamer branch GGTTGGC12GTGGAlkTGGTTTTT (C12 and Alk unnatural phosphodiester monomers), same buffer as TBA1F): 7.05

GGGTGGPHECTGGPHETGGNAP [Aptamer3]
pKd (Thrombin (Homo sapiens) [2]): 7.70
pKd (Thrombin (Homo sapiens) [1]; Phe at library positions 5 and 3, C12 at position 4, Nap at position 1 (3' end) (unnatural monomers), fluorescence anisotropy with 0.1 mg/mL sheared salmon sperm DNA, N=3, unit given as nmol): 8.30
pKd (Thrombin (Homo sapiens) [1]; Phe at library positions 5 and 3, C12 at position 4, Nap at position 1 (3' end) (unnatural monomers), fluorescence anisotropy, thrombin binding buffer, unit given as nmol): 8.22

GGTPTGGPHECTGGTTGGG [Aptamer2]
pKd (Thrombin (Homo sapiens) [1]; Trp at library position 7, Phe at position 5, C12 at position 4 (unnatural monomers), fluorescence anisotropy, unit given as nmol): 8.00
pKd (Thrombin (Homo sapiens) [1]; Trp at library position 7, Phe at position 5, C12 at position 4 (unnatural monomers), with 0.1 mg/mL salmon sperm DNA, N=3, unit given as nmol): 8.00

GGTTGGPHEGTGGTTGGT [Aptamer1]
pKd (Thrombin (Homo sapiens) [1]; Phe unnatural monomer at library position 5, fluorescence anisotropy, unit given as nmol): 7.59

GGTTGGTGTGGTTGGNAP [Aptamer4 of Table 9 (Nap at position 1; Aptamer5 in FIG. 12)]
pKd (Thrombin (Homo sapiens) [1]; Nap unnatural monomer at library position 1 (3' end), unit given as nmol, Aptamer4/5 naming swapped in FIG. 12, Table 9 sequence used): 7.62
